T1: PYD and CARD-deleted NLRP1 (NLRP1ΔΔ), molecule A of the ternary complex (human, UniProt Q9C000-1 148-1364)
T1 sequence (looked up): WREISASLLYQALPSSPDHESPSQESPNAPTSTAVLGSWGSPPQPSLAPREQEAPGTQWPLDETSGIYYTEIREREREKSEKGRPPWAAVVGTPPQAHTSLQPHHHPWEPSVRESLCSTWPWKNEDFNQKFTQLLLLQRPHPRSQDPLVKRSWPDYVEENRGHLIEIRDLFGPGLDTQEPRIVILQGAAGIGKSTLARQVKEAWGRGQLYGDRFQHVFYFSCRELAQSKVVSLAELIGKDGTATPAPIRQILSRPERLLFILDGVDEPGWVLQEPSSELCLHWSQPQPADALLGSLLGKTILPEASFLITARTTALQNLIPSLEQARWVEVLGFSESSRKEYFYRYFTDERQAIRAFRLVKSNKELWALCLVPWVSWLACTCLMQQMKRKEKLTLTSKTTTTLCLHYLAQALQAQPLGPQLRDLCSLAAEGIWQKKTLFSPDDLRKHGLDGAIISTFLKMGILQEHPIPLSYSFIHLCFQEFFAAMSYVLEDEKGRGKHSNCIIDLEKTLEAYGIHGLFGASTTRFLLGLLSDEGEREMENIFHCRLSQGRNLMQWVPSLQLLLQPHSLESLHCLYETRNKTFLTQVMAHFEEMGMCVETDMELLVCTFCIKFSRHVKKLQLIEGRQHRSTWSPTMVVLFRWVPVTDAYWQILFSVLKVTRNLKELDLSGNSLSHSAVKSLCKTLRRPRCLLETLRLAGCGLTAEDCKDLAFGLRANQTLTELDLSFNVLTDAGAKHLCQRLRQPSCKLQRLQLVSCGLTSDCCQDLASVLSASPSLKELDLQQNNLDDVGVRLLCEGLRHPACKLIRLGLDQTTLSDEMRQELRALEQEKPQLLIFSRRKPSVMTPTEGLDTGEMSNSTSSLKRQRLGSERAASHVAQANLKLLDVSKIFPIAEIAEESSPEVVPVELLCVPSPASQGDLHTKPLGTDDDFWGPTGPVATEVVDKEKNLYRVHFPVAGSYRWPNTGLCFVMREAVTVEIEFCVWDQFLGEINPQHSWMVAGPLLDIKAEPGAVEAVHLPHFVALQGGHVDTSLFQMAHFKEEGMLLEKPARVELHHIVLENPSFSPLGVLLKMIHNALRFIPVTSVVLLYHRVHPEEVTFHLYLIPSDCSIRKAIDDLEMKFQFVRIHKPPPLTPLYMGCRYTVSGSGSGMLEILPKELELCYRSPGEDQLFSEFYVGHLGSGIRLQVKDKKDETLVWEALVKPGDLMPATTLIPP

B1: NLRP1-CT derived from NLRP1ΔΔ (UPA subdomain only), molecule B of the ternary complex (domain or fragment, human, UniProt Q9C000-1 1213-1364, looked up)
chain: SPLGVLLKMIHNALRFIPVTSVVLLYHRVHPEEVTFHLYLIPSDCSIRKAIDDLEMKFQFVRIHKPPPLTPLYMGCRYTVSGSGSGMLEILPKELELCYRSPGEDQLFSEFYVGHLGSGIRLQVKDKKDETLVWEALVKPGDLMPATTLIPP
B2: DPP9, short isoform (His-TEV-DPP9), co-purified with NLRP1ΔΔ (enzyme, human)
chain: MATTGTPTADRGDAAATDDPAARFQVQKHSWDGLRSIIHGSRKYSGLIVNKAPHDFQFVQKTDESGPHSHRLYYLGMPYGSRENSLLYSEIPKKVRKEALLLLSWKQMLDHFQATPHHGVYSREEELLRERKRLGVFGITSYDFHSESGLFLFQASNSLFHCRDGGKNGFMVSPMKPLEIKTQCSGPRMDPKICPADPAFFSFINNSDLWVANIETGEERRLTFCHQGLSNVLDDPKSAGVATFVIQEEFDRFTGYWWCPTASWEGSEGLKTLRILYEEVDESEVEVIHVPSPALEERKTDSYRYPRTGSKNPKIALKLAEFQTDSQGKIVSTQEKELVQPFSSLFPKVEYIARAGWTRDGKYAWAMFLDRPQQWLQLVLLPPALFIPSTENEEQRLASARAVPRNVQPYVVYEEVTNVWINVHDIFYPFPQSEGEDELCFLRANECKTGFCHLYKVTAVLKSQGYDWSEPFSPGEDEFKCPIKEEIALTSGEWEVLARHGSKIWVNEETKLVYFQGTKDTPLEHHLYVVSYEAAGEIVRLTTPGFSHSCSMSQNFDMFVSHYSSVSTPPCVHVYKLSGPDDDPLHKQPRFWASMMEAASCPPDYVPPEIFHFHTRSDVRLYGMIYKPHALQPGKKHPTVLFVYGGPQVQLVNNSFKGIKYLRLNTLASLGYAVVVIDGRGSCQRGLRFEGALKNQMGQVEIEDQVEGLQFVAEKYGFIDLSRVAIHGWSYGGFLSLMGLIHKPQVFKVAIAGAPVTVWMAYDTGYTERYMDVPENNQHGYEAGSVALHVEKLPNEPNRLLILHGFLDENVHFFHTNFLVSQLIRAGKPYQLQIYPNERHSIRCPESGEHYEVTLLHFLQEYL

Target: T1, PYD and CARD-deleted NLRP1 (NLRP1ΔΔ), …
Assay: cryo-EM structure

Binder | binding result
B1 | binds
B2 | binds

— publication PMC8299537 (Nature, 2021)
